# Experimental data reported in the supplement of paper PMC11246515.
# ± gives the standard deviation of the averaged measurements.
# Assay: total protein half-life in vivo (active degradation + dilution); higher = more stable protein
# [1] = E. coli NCM3722 delta-clpP delta-lon delta-hslV, growth: N-lim chemostat, doubling time 6 h
# [2] = E. coli NCM3722 delta-clpP, growth: N-lim chemostat, doubling time 6 h
# [3] = E. coli NCM3722 delta-hslV, growth: N-lim chemostat, doubling time 6 h
# [4] = E. coli NCM3722 delta-lon, growth: N-lim chemostat, doubling time 6 h
# [5] = E. coli NCM3722 delta-smpB, growth: N-lim chemostat, doubling time 6 h
# [6] = wild type E. coli NCM3722, growth: C-lim chemostat, doubling time 3 h
# [7] = wild type E. coli NCM3722, growth: C-lim chemostat, doubling time 6 h
# [8] = wild type E. coli NCM3722, growth: C-lim chemostat, doubling time 12 h
# [9] = wild type E. coli NCM3722, growth: N-lim chemostat, doubling time 6 h
# [10] = wild type E. coli NCM3722, growth: N-lim chemostat, doubling time 12 h
# [11] = wild type E. coli NCM3722, growth: P-lim chemostat, doubling time 6 h
# [12] = wild type E. coli NCM3722, growth: P-lim chemostat, doubling time 12 h
substance,measurement,setting,value
MESKVVVPAQGKKITLQNGKLNVPENPIIPYIEGDGIGVDVTPAMLKVVDAAVEKAYKGERKISWMEIYTGEKSTQVYGQDVWLPAETLDLIREYRVAIKGPLTTPVGGGIRSLNVALRQELDLYICLRPVRYYQGTPSPVKHPELTDMVIFRENSEDIYAGIEWKADSADAEKVIKFLREEMGVKKIRFPEHCGIGIKPCSEEGTKRLVRAAIEYAIANDRDSVTLVHKGNIMKFTEGAFKDWGYQLAREEFGGELIDGGPWLKVKNPNTGKEIVIKDVIADAFLQQILLRPAEYDVIACMNLNGDYISDALAAQVGGIGIAPGANIGDECALFEATHGTAPKYAGQDKVNPGSIILSAEMMLRHMGWTEAADLIVKGMEGAINAKTVTYDFERLMDGAKLLKCSEFGDAIIENM,total protein half-life in vivo,[1],4.7 ± 0.38 h
same,total protein half-life in vivo,[2],4.36 ± 0.53 h
same,total protein half-life in vivo,[3],4.05 ± 0.061 h
same,total protein half-life in vivo,[4],4.61 ± 0.056 h
same,total protein half-life in vivo,[5],4.1 ± 0.047 h
same,total protein half-life in vivo,[6],3.16 ± 0.068 h
same,total protein half-life in vivo,[7],5.584 ± 0.048 h
same,total protein half-life in vivo,[8],10.1 ± 0.64 h
same,total protein half-life in vivo,[9],4.08 ± 0.24 h
same,total protein half-life in vivo,[10],6.47 ± 0.1 h
same,total protein half-life in vivo,[11],5.73 ± 0.1 h
same,total protein half-life in vivo,[12],12.3 ± 0.41 h
MSKIVKIIGREIIDSRGNPTVEAEVHLEGGFVGMAAAPSGASTGSREALELRDGDKSRFLGKGVTKAVAAVNGPIAQALIGKDAKDQAGIDKIMIDLDGTENKSKFGANAILAVSLANAKAAAAAKGMPLYEHIAELNGTPGKYSMPVPMMNIINGGEHADNNVDIQEFMIQPVGAKTVKEAIRMGSEVFHHLAKVLKAKGMNTAVGDEGGYAPNLGSNAEALAVIAEAVKAAGYELGKDITLAMDCAASEFYKDGKYVLAGEGNKAFTSEEFTHFLEELTKQYPIVSIEDGLDESDWDGFAYQTKVLGDKIQLVGDDLFVTNTKILKEGIEKGIANSILIKFNQIGSLTETLAAIKMAKDAGYTAVISHRSGETEDATIADLAVGTAAGQIKTGSMSRSDRVAKYNQLIRIEEALGEKAPYNGRKEIKGQA [P0A6P9],total protein half-life in vivo,[1],5.56 ± 0.57 h
same,total protein half-life in vivo,[2],5.57 ± 0.75 h
same,total protein half-life in vivo,[3],4.86 ± 0.065 h
same,total protein half-life in vivo,[4],4.95 ± 0.37 h
same,total protein half-life in vivo,[5],4.634 ± 0.024 h
same,total protein half-life in vivo,[6],3.19 ± 0.15 h
same,total protein half-life in vivo,[7],5.95 ± 0.21 h
same,total protein half-life in vivo,[8],12.831 ± 0.01 h
same,total protein half-life in vivo,[9],5.06 ± 0.19 h
same,total protein half-life in vivo,[10],8.35 ± 0.29 h
same,total protein half-life in vivo,[11],5.52 ± 0.69 h
same,total protein half-life in vivo,[12],11.3 ± 0.84 h
MMVQHLKRRPLSRYLKDFKHSQTHCAHCRKLLDRITLVRDGKIVNKIEISRLDTLLDENGWQTEQKSWAALCRFCGDLHCKTQSDFFDIIGFKQFLFEQTEMSPGTVREYVVRLRRLGNHLHEQNISLDQLQDGFLDEILAPWLPTTSTNNYRIALRKYQHYQRQTCTRLVQKSSSLPSSDIY,total protein half-life in vivo,[1],6.005 ± 0.037 h
same,total protein half-life in vivo,[6],0.828 ± 0.34 h
same,total protein half-life in vivo,[8],1.23 h
MDDQLKQSALDFHEFPVPGKIQVSPTKPLATQRDLALAYSPGVAAPCLEIEKDPLKAYKYTARGNLVAVISNGTAVLGLGNIGALAGKPVMEGKGVLFKKFAGIDVFDIEVDELDPDKFIEVVAALEPTFGGINLEDIKAPECFYIEQKLRERMNIPVFHDDQHGTAIISTAAILNGLRVVEKNISDVRMVVSGAGAAAIACMNLLVALGLQKHNIVVCDSKGVIYQGREPNMAETKAAYAVVDDGKRTLDDVIEGADIFLGCSGPKVLTQEMVKKMARAPMILALANPEPEILPPLAKEVRPDAIICTGRSDYPNQVNNVLCFPFIFRGALDVGATAINEEMKLAAVRAIAELAHAEQSEVVASAYGDQDLSFGPEYIIPKPFDPRLIVKIAPAVAKAAMESGVATRPIADFDVYIDKLTEFVYKTNLFMKPIFSQARKAPKRVVLPEGEEARVLHATQELVTLGLAKPILIGRPNVIEMRIQKLGLQIKAGVDFEIVNNESDPRFKEYWTEYFQIMKRRGVTQEQAQRALISNPTVIGAIMVQRGEADAMICGTVGDYHEHFSVVKNVFGYRDGVHTAGAMNALLLPSGNTFIADTYVNDEPDAEELAEITLMAAETVRRFGIEPRVALLSHSNFGSSDCPSSSKMRQALELVRERAPELMIDGEMHGDAALVEAIRNDRMPDSSLKGSANILVMPNMEAARISYNLLRVSSSEGVTVGPVLMGVAKPVHVLTPIASVRRIVNMVALAVVEAQTQPL,total protein half-life in vivo,[1],5.85 ± 0.24 h
same,total protein half-life in vivo,[2],6.35 ± 2.2 h
same,total protein half-life in vivo,[3],5.84 ± 0.13 h
same,total protein half-life in vivo,[4],7.1 ± 0.61 h
same,total protein half-life in vivo,[5],5.6 ± 0.15 h
same,total protein half-life in vivo,[6],3.13 ± 0.15 h
same,total protein half-life in vivo,[7],5.948 ± 0.055 h
same,total protein half-life in vivo,[8],10.7 ± 0.31 h
same,total protein half-life in vivo,[9],5.97 ± 0.3 h
same,total protein half-life in vivo,[10],10.983 ± 0.005 h
same,total protein half-life in vivo,[11],6.35 ± 0.11 h
same,total protein half-life in vivo,[12],12.2 ± 1.3 h
P0ADE2,total protein half-life in vivo,[1],1.56 h
same,total protein half-life in vivo,[7],0.174 h
same,total protein half-life in vivo,[11],0.104 h
same,total protein half-life in vivo,[12],0.888 ± 0.58 h
MIRISDAAQAHFAKLLANQEEGTQIRVFVINPGTPNAECGVSYCPPDAVEATDTALKFDLLTAYVDELSAPYLEDAEIDFVTDQLGSQLTLKAPNAKMRKVADDAPLMERVEYMLQSQINPQLAGHGGRVSLMEITEDGYAILQFGGGCNGCSMVDVTLKEGIEKQLLNEFPELKGVRDLTEHQRGEHSYY,total protein half-life in vivo,[1],4.529 ± 0.0069 h
same,total protein half-life in vivo,[2],3.82 ± 0.32 h
same,total protein half-life in vivo,[3],2.533 ± 0.019 h
same,total protein half-life in vivo,[4],2.97 ± 0.2 h
same,total protein half-life in vivo,[5],2.54 ± 0.25 h
same,total protein half-life in vivo,[6],2.32 ± 0.16 h
same,total protein half-life in vivo,[7],3.4 ± 0.13 h
same,total protein half-life in vivo,[8],5.07 ± 0.12 h
same,total protein half-life in vivo,[9],2.55 ± 0.36 h
same,total protein half-life in vivo,[10],3.63 ± 0.19 h
same,total protein half-life in vivo,[11],3.01 ± 0.56 h
same,total protein half-life in vivo,[12],6.09 ± 0.23 h
MAQVAIITASDSGIGKECALLLAQQGFDIGITWHSDEEGAKDTAREVVSHGVRAEIVQLDLGNLPEGALALEKLIQRLGRIDVLVNNAGAMTKAPFLDMAFDEWRKIFTVDVDGAFLCSQIAARQMVKQGQGGRIINITSVHEHTPLPDASAYTAAKHALGGLTKAMALELVRHKILVNAVAPGAIATPMNGMDDSDVKPDAEPSIPLRRFGATHEIASLVVWLCSEGANYTTGQSLIVDGGFMLANPQFNPE,total protein half-life in vivo,[1],5.0837 ± 0.0019 h
same,total protein half-life in vivo,[2],4.64 ± 0.2 h
same,total protein half-life in vivo,[3],5.14 ± 0.54 h
same,total protein half-life in vivo,[4],4.36 ± 0.089 h
same,total protein half-life in vivo,[5],4.64 ± 0.24 h
same,total protein half-life in vivo,[6],2.863 ± 0.007 h
same,total protein half-life in vivo,[7],5.19 ± 0.38 h
same,total protein half-life in vivo,[8],11 ± 0.19 h
same,total protein half-life in vivo,[9],4.81 ± 0.42 h
same,total protein half-life in vivo,[10],7.86 ± 0.13 h
same,total protein half-life in vivo,[11],5.6 ± 0.22 h
same,total protein half-life in vivo,[12],10.9 ± 0.34 h
MTTNTHTLQIEEILELLPHRFPFLLVDRVLDFEEGRFLRAVKNVSVNEPFFQGHFPGKPIFPGVLILEAMAQATGILAFKSVGKLEPGELYYFAGIDEARFKRPVVPGDQMIMEVTFEKTRRGLTRFKGVALVDGKVVCEATMMCARSREA [P0A6Q6],total protein half-life in vivo,[1],5.67 ± 0.36 h
same,total protein half-life in vivo,[4],5.38 ± 0.24 h
same,total protein half-life in vivo,[5],5.504 ± 0.036 h
same,total protein half-life in vivo,[6],2.86 ± 0.45 h
same,total protein half-life in vivo,[7],6.1 ± 0.81 h
same,total protein half-life in vivo,[8],11.2 ± 0.12 h
same,total protein half-life in vivo,[9],6.23 ± 0.6 h
same,total protein half-life in vivo,[10],11.9 ± 0.43 h
same,total protein half-life in vivo,[11],5.75 ± 0.8 h
same,total protein half-life in vivo,[12],13.4 ± 0.14 h
